Target: T1, SRC, endogenous in mouse splenocytes (mouse, UniProt P05480 2-535)
T1 construct: Detected as pSRC (pY416-SRC antibody) in gp130 co-immunoprecipitates; also called pSRC; c-SRC
Test: co-immunoprecipitation, F814 mouse splenocytes with or without OSM

B1: gp130 F814 variant of the CRISPR/Cas9 F814 mouse (SEQ ID NO:27 with F812 substitution) (receptor)
chain: QLLEPCGYIYPEFPVVQRGSNFTAICVLKEACLQHYYVNASYIVWKTNHAAVPREQVTVINRTTSSVTFTDVVLPSVQLTCNILSFGQIEQNVYGVTMLSGFPPDKPTNLTCIVNEGKNMLCQWDPGRETYLETNYTLKSEWATEKFPDCQSKHGTSCMVSYMPTYYVNIEVWVEAENALGKVSSESINFDPVDKVKPTPPYNLSVTNSEELSSILKLSWVSSGLGGLLDLKSDIQYRTKDASTWIQVPLEDTMSPRTSFTVQDLKPFTEYVFRIRSIKDSGKGYWSDWSEEASGTTYEDRPSRPPSFWYKTNPSHGQEYRSVRLIWKALPLSEANGKILDYEVILTQSKSVSQTYTVTGTELTVNLTNDRYVASLAARNKVGKSAAAVLTIPSPHVTAAYSVVNLKAFPKDNLLWVEWTPPPKPVSKYILEWCVLSENAPCVEDWQQEDATVNRTHLRGRLLESKCYQITVTPVFATGPGGSESLKAYLKQAAPARGPTVRTKKVGKNEAVLAWDQIPVDDQNGFIRNYSISYRTSVGKEMVVHVDSSHTEYTLSSLSSDTLYMVRMAAYTDEGGKDGPEFTFTTPKFAQGEIEAIVVPVCLAFLLTTLLGVLFCFNKRDLIKKHIWPNVPDPSKSHIAQWSPHTPPRHNFNSKDQMYSDGNFTDVSVVEIEANNKKPCPDDLKSVDLFKKEKVSTEGHSSGIGGSSCMSSSRPSISSNEENESAQSTASTVQYSTVVHSGYRHQVPSVQVFSRSESTQPLLDSEERPEDLQLVDSVDGGDEILPRQPFFKQNCSQPEACPEISHFERSNQVLSGNEEDFVRLKQQQVSDHISQPYGSEQRRLFQEGSTADALGTGADGQMERFESVGMETTIDEEIPKSYLPQTVRQGGYMPQ
notes: Endogenous protein in lysates of F814 mouse splenocytes; also called Y814 mutant; gp130 Y814-deficient
binding result: no binding
